{"source": "patent US9994881B2", "about": "“Functionalized carboxylic acids and alcohols by reverse fatty acid oxidation in engineered microbes” (William Marsh Rice University, priority 2011, dated 2018)", "molecules": {"B1": {"name": "FadA: E. coli 3-ketoacyl-CoA thiolase (thiolase I), a component of fatty acid oxidation complex FadAB (protein, UniProt P21151 1-387, looked up)", "3-ketoacyl-CoA thiolase FadA": "MEQVVIVDAIRTPMGRSKGGAFRNVRAEDLSAHLMRSLLARNPALEAAALDDIYWGCVQQTLEQGFNIARNAALLAEVPHSVPAVTVNRLCGSSMQALHDAARMIMTGDAQACLVGGVEHMGHVPMSHGVDFHPGLSRNVAKAAGMMGLTAEMLARMHGISREMQDAFAARSHARAWAATQSAAFKNEIIPTGGHDADGVLKQFNYDEVIRPETTVEALATLRPAFDPVNGMVTAGTSSALSDGAAAMLVMSESRAHELGLKPRARVRSMAVVGCDPSIMGYGPVPASKLALKKAGLSASDIGVFEMNEAFAAQILPCIKDLGLIEQIDEKINLNGGAIALGHPLGCSGARISTTLLNLMERKDVQFGLATMCIGLGQGIATVFERV"}, "B2": {"name": "egTER: NAD(P)H-dependent trans-2-enoyl-CoA reductase from Euglena gracilis (protein, UniProt Q5EU90 69-539, looked up)", "Trans-2-enoyl-CoA reductase": "VPQMAEGFSGEATSAWAAAGPQWAAPLVAAASSALALWWWAARRSVRRPLAALAELPTAVTHLAPPMAMFTTTAKVIQPKIRGFICTTTHPIGCEKRVQEEIAYARAHPPTSPGPKRVLVIGCSTGYGLSTRITAAFGYQAATLGVFLAGPPTKGRPAAAGWYNTVAFEKAALEAGLYARSLNGDAFDSTTKARTVEAIKRDLGTVDLVVYSIAAPKRTDPATGVLHKACLKPIGATYTNRTVNTDKAEVTDVSIEPASPEEIADTVKVMGGEDWELWIQALSEAGVLAEGAKTVAYSYIGPEMTWPVYWSGTIGEAKKDVEKAAKRITQQYGCPAYPVVAKALVTQASSAIPVVPLYICLLYRVMKEKGTHEGCIEQMVRLLTTKLYPENGAPIVDEAGRVRVDDWEMAEDVQQAVKDLWSQVSTANLKDISDFAGYQTEFLRLFGFGIDGVDYDQPVDVEADLPSAAQQ"}, "B3": {"name": "FadE: E. coli acyl-CoA dehydrogenase, a medium-long-chain fatty acyl-CoA dehydrogenase (protein, UniProt Q47146 1-814, looked up)", "Acyl-coenzyme A dehydrogenase": "MMILSILATVVLLGALFYHRVSLFISSLILLAWTAALGVAGLWSAWVLVPLAIILVPFNFAPMRKSMISAPVFRGFRKVMPPMSRTEKEAIDAGTTWWEGDLFQGKPDWKKLHNYPQPRLTAEEQAFLDGPVEEACRMANDFQITHELADLPPELWAYLKEHRFFAMIIKKEYGGLEFSAYAQSRVLQKLSGVSGILAITVGVPNSLGPGELLQHYGTDEQKDHYLPRLARGQEIPCFALTSPEAGSDAGAIPDTGIVCMGEWQGQQVLGMRLTWNKRYITLAPIATVLGLAFKLSDPEKLLGGAEDLGITCALIPTTTPGVEIGRRHFPLNVPFQNGPTRGKDVFVPIDYIIGGPKMAGQGWRMLVECLSVGRGITLPSNSTGGVKSVALATGAYAHIRRQFKISIGKMEGIEEPLARIAGNAYVMDAAASLITYGIMLGEKPAVLSAIVKYHCTHRGQQSIIDAMDITGGKGIMLGQSNFLARAYQGAPIAITVEGANILTRSMMIFGQGAIRCHPYVLEEMEAAKNNDVNAFDKLLFKHIGHVGSNKVRSFWLGLTRGLTSSTPTGDATKRYYQHLNRLSANLALLSDVSMAVLGGSLKRRERISARLGDILSQLYLASAVLKRYDDEGRNEADLPLVHWGVQDALYQAEQAMDDLLQNFPNRVVAGLLNVVIFPTGRHYLAPSDKLDHKVAKILQVPNATRSRIGRGQYLTPSEHNPVGLLEEALVDVIAADPIHQRICKELGKNLPFTRLDELAHNALVKGLIDKDEAAILVKAEESRLRSINVDDFDPEELATKPVKLPEKVRKVEAA"}, "B4": {"name": "paaH: E. coli 3-hydroxyadipyl-CoA dehydrogenase that participates in the degradation of phenylacetate (protein, UniProt P76083 1-475, looked up)", "3-hydroxyadipyl-CoA …": "MMINVQTVAVIGSGTMGAGIAEVAASHGHQVLLYDISAEALTRAIDGIHARLNSRVTRGKLTAETCERTLKRLIPVTDIHALAAADLVIEAASERLEVKKALFAQLAEVCPPQTLLTTNTSSISITAIAAEIKNPERVAGLHFFNPAPVMKLVEVVSGLATAAEVVEQLCELTLSWGKQPVRCHSTPGFIVNRVARPYYSEAWRALEEQVAAPEVIDAALRDGAGFPMGPLELTDLIGQDVNFAVTCSVFNAFWQERRFLPSLVQQELVIGGRLGKKSGLGVYDWRAEREAVVGLEAVSDSFSPMKVEKKSDGVTEIDDVLLIETQGETAQALAIRLARPVVVIDKMAGKVVTIAAAAVNPDSATRKAIYYLQQQGKTVLQIADYPGMLIWRTVAMIINEALDALQKGVASEQDIDTAMRLGVNYPYGPLAWGAQLGWQRILRLLENLQHHYGEERYRPCSLLRQRALLESGYES"}, "B5": {"name": "FadB: E. coli hydroxyacyl-CoA dehydrogenase and enoyl-CoA hydratase, part of fatty acid oxidation complex (protein, UniProt P21177 1-729, looked up)", "Fatty acid oxidation complex …": "MLYKGDTLYLDWLEDGIAELVFDAPGSVNKLDTATVASLGEAIGVLEQQSDLKGLLLRSNKAAFIVGADITEFLSLFLVPEEQLSQWLHFANSVFNRLEDLPVPTIAAVNGYALGGGCECVLATDYRLATPDLRIGLPETKLGIMPGFGGSVRMPRMLGADSALEIIAAGKDVGADQALKIGLVDGVVKAEKLVEGAKAVLRQAINGDLDWKAKRQPKLEPLKLSKIEATMSFTIAKGMVAQTAGKHYPAPITAVKTIEAAARFGREEALNLENKSFVPLAHTNEARALVGIFLNDQYVKGKAKKLTKDVETPKQAAVLGAGIMGGGIAYQSAWKGVPVVMKDINDKSLTLGMTEAAKLLNKQLERGKIDGLKLAGVISTIHPTLDYAGFDRVDIVVEAVVENPKVKKAVLAETEQKVRQDTVLASNTSTIPISELANALERPENFCGMHFFNPVHRMPLVEIIRGEKSSDETIAKVVAWASKMGKTPIVVNDCPGFFVNRVLFPYFAGFSQLLRDGADFRKIDKVMEKQFGWPMGPAYLLDVVGIDTAHHAQAVMAAGFPQRMQKDYRDAIDALFDANRFGQKNGLGFWRYKEDSKGKPKKEEDAAVEDLLAEVSQPKRDFSEEEIIARMMIPMVNEVVRCLEEGIIATPAEADMALVYGLGFPPFHGGAFRWLDTLGSAKYLDMAQQYQHLGPLYEVPEGLRNKARHNEPYYPPVEPARPVGDLKTA"}}, "format_in_all_cases": "biochemical", "key": {"[1]": {"test": "forward thiolase assay (biosynthetic direction), coupled with caHBD", "details": "substrate Acetyl-CoA; supernatant fraction; AtoB expressed from pCA24N, FadA from pUCBB-ntH6", "protocol": "(§1) Cultures for enzymatic assays were grown overnight in 100 mL of LB media at 37° C. in 250 mL baffled flasks (Wheaton Industries, Inc., Millville, N.J.) in E. coli BL21 (DE3) cells induced with either 1 mM IPTG (pCA24N, pTrcHis2A) or 1 mM Arabinose (pUCBB-pBAD) at an OD600˜0.6, or expressed constitutively (pUCBB-ntH6). Reactions were monitored on either a Synergy HT plate reader (BioTek Instruments, Inc., Winooski, Vt.) at 25° C. (for reactions monitored at 300 nm or higher) or in a Biomate 5 Spectrophotometer (Thermo Scientific, Waltham, Mass.) for reactions at 263 nm. […]\n(§2) For kinetic characterization, his-tagged proteins of AtoB, FadA, FadB, caHBD, egTER were purified from the B-PER supernatant fractions using Talon Metal Affinity Resin (Clontech Laboratories, Inc., Mountain View, Calif.) using gravity purification. […] Enzyme concentration was established by measuring the absorbance at […] and extinction coefficients predicted for each enzyme by the ProtParam program (web.expasy.org/protparam/).\n(§3) For kinetic characterization, an appropriate amount of enzyme was established by checking linear range near predicted KM values. Then, the rates were measured for a range of substrates in order to establish kcat and KM. […]"}, "[2]": {"test": "thiolase activity in the reverse direction (loss of acetoacetyl-CoA at 303 nm)", "details": "substrate Acetoacetyl-CoA; supernatant fraction; AtoB expressed from pCA24N, FadA from pUCBB-ntH6", "protocol": "as §1, §2, §3"}, "[3]": {"test": "crotonyl-CoA reductase activity (loss of NADH absorbance)", "details": "substrate Crotonyl-CoA; supernatant fraction; expressed from pTrcHis2A", "protocol": "as §1, §2, §3"}, "[4]": {"test": "Butyryl-CoA dehydrogenase activity utilizing ferricenium ion", "protocol": "Cells were lysed using Bacterial Protein Extraction Reagent (B-PER) (Thermo Scientific, Waltham, Mass.) as per the prescribed protocol in order to obtain the supernatant containing the active enzymes. FadE and YdiO were purified following previously established methods^45 using the same growth conditions mentioned above.\nCell pellets were resuspended in 40 mL of 50 mM potassium phosphate buffer pH 7.2 and broken by disruption EmulsiFlex-05 homogenizer (Avestin, Ottawa, ON). Disrupted cells were then spun for 90 min at 4° C. at 120,000×g in a Optima L-80XP Ultracentrifuge (Beckman-Coulter, Schaumburg, Ill.) to produce the supernatant used for assays.\nFor specific activity assays (reported in μmol substrate/mg protein/min) these supernatant fractions were utilized and protein concentration was established using the Bradford Reagent (Thermo Scientific, Waltham, Mass.) using BSA as the protein standard. Linearity was established for each reaction and the background non-enzymatic rate was subtracted to establish the activity.\nFor FadE and YdiO, Butyryl-CoA dehydrogenase activity was measured utilizing ferricenium ion^49. Reactions were performed in 50 mM potassium phosphate pH 7.2, 0.4 mM MgSO4, 200 μM ferrocenium hexafluorophosphate, and 200 μM Butyryl-CoA and monitored the formation of the reduced ferrocene ion at 300 nm (ε=4.3 mM^−1 cm^−1)."}, "[5]": {"test": "β-hydroxybutyryl-CoA dehydrogenase assay (NADH dependent reduction of acetoacetyl-CoA)", "protocol": "as §1, §2, §3"}, "[6]": {"test": "crotonase activity (loss of crotonoyl-CoA at 263 nm)", "details": "substrate Crotonyl-CoA; supernatant fraction; expressed from pUCBB-ntH6", "protocol": "as §1, §2, §3"}}, "note": "Marks after values point to notes of the source that are not given here."}
{"molecule": "B1", "values": [{"measurement": "Specific Activity", "setting": "[1]", "result": "Not detected^c"}, {"measurement": "Specific Activity", "setting": "[2]", "result": "0.013 ± 0.002^c μmol/mg/min"}]}
{"molecule": "B2", "values": [{"measurement": "Specific Activity", "setting": "[3]", "result": "5.4 ± 0.6^d μmol/mg/min"}]}
{"molecule": "B3", "values": [{"measurement": "activity upon purification", "setting": "[4]; purified enzyme", "result": "no detectable activities"}, {"measurement": "Specific Activity", "setting": "[4]; substrate Butyryl-CoA, crude extract of cells, expressed from pCA24N", "result": "0.008 ± 0.001^b μmol/mg/min"}]}
{"molecule": "B4", "values": [{"measurement": "specific activity toward the reduction of acetoacetyl-CoA", "setting": "[5]; purified enzyme, data not shown", "result": "moderate"}]}
{"molecule": "B5", "values": [{"measurement": "Specific Activity", "setting": "[6]", "result": "0.051 ± 0.004^c μmol/mg/min"}, {"measurement": "Specific Activity", "setting": "[5]; substrate Acetoacetyl-CoA, supernatant fraction, expressed from pUCBB-ntH6", "result": "0.185 ± 0.001^c μmol/mg/min"}]}
